Laboratory results: US20110200590A1

What was measured:
Assay in all cases: cell-based or functional assay
[1] = biological target: Interleukin-10 (IL-10) released by human monocytes (human) (UniProt P22301)
[2] = biological target: FcRI (CD64), high affinity immunoglobulin gamma Fc receptor I, on human monocytes (human) (UniProt P12314)
[3] = biological target: anti-MBP (105-120) monoclonal IgM Mab 1, clone DM1A2C1

Chain of UniProt P12314 (P12314 16-374 limits assumed, form in doubt): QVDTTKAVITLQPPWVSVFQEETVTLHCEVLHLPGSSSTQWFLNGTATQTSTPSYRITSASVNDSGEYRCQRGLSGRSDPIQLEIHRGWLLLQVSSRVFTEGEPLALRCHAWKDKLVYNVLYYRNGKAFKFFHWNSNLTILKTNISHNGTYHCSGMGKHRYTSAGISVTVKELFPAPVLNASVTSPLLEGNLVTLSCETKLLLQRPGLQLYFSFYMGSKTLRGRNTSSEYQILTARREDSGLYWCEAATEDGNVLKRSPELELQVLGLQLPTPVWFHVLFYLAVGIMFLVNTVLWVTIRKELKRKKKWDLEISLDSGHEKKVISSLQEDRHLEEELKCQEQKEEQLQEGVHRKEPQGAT
Chain of UniProt P22301 (P22301 19-178 limits assumed): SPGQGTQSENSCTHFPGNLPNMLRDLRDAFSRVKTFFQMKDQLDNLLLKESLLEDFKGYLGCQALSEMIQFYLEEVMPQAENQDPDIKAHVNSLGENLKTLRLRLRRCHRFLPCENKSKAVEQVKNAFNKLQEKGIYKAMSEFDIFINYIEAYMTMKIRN

**Q.** Which % inhibition of proliferation of human MBP+-T line by Mab 1 in the presence of Mab IL-10 (T + PBM + Mab 1 + Mab IL-10) [1] does the source give for “neutralising monoclonal antibody anti-human IL-10 (R&D Systems)” here?
**A.** The % inhibition of proliferation of human MBP+-T line by Mab 1 in the presence of Mab IL-10 (T + PBM + Mab 1 + Mab IL-10) was 0%.

**Q.** What about the % inhibition of proliferation of human MBP+-T line by Mab CD64 in the presence of Mab IL-10 (T + PBM + Mab CD64 + Mab IL-10) [1] of the same molecule?
**A.** Its % inhibition of proliferation of human MBP+-T line by Mab CD64 in the presence of Mab IL-10 (T + PBM + Mab CD64 + Mab IL-10) is 0%.

**Q.** How did the % inhibition of proliferation of human MBP+-T cells (T + PBM + Mab CD64) [2] turn out when “mouse monoclonal antibody anti-human CD64, IgG1 (Ancell)” was run?
**A.** Its % inhibition of proliferation of human MBP+-T cells (T + PBM + Mab CD64) is 100%.

**Q.** What about the % inhibition of proliferation of human MBP+-T line (T + PBM + Mab CD64) [2] of the same molecule?
**A.** Its % inhibition of proliferation of human MBP+-T line (T + PBM + Mab CD64) is 98%.

**Q.** What about the Levels of IL-10 in the supernatants of human monocytes (MNC + Mab CD64) [2] of the same molecule?
**A.** The Levels of IL-10 in the supernatants of human monocytes (MNC + Mab CD64) was 3950 pg/mL.

**Q.** And the Levels of IL-10 in the supernatants of human monocytes activated with LPS (MNC + LPS + Mab CD64) [2]?
**A.** The Levels of IL-10 in the supernatants of human monocytes activated with LPS (MNC + LPS + Mab CD64) was 6360 pg/mL.

**Q.** GLQLYFS [peptide 222-228 CD64 (GLQLYFS)] was tested. Which % inhibition of proliferation of human MBP+-T cells by Mab 1 in the presence of pep 1 (T + PBM + Mab 1 + pep 1) [3] did it give?
**A.** Its % inhibition of proliferation of human MBP+-T cells by Mab 1 in the presence of pep 1 (T + PBM + Mab 1 + pep 1) is 0%.

**Q.** Which % inhibition of proliferation of human MBP+-T cells by Mab 1 in the presence of pep 2 (T + PBM + Mab 1 + pep 2) [3] does the source give for QFLGSYL [“scrambled” peptide (QFLGSYL Seq ID no 5)] here?
**A.** The % inhibition of proliferation of human MBP+-T cells by Mab 1 in the presence of pep 2 (T + PBM + Mab 1 + pep 2) was 98%.
